Laboratory results taken from US20070031331A1 (Genentech, published 2007).

T1: human CD20 (human, UniProt P11836 1-297)
T1 construct: whole, on cells; also called CD20 antigen; Bp35
T1 sequence (looked up): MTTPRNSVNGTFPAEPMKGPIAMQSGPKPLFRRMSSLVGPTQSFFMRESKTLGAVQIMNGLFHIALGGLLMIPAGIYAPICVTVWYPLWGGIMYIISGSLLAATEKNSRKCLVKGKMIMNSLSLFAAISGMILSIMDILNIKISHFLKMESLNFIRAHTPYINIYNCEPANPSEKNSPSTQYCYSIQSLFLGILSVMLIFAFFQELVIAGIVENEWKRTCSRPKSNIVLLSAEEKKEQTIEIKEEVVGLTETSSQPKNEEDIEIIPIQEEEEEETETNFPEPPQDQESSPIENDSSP


Tests used:
human CD20 [1] = target: T1, human CD20; test: Scatchard analysis, cold antibody against 125I-2H7.v16 on WIL2-S cells, n=4
Procedure: All dilutions were performed in binding assay buffer (DMEM media containing 1% bovine serum albumin, 25 mM HEPES pH 7.2, and 0.01% sodium azide). […] WIL2-S cells (60,000 cells in 0.025 mL) were then added. The plate was sealed and incubated at room temperature for 24 hours, then centrifuged for 15 min at 3,500 RPM. The supernatant was then aspirated and the cell pellet was washed and centrifuged. The supernatant was again aspirated, and the pellets were dissolved in 1N NaOH and transferred to tubes for gamma counting.

human CD20 [2] = target: T1, human CD20; test: cell-based ELISA on WIL2-S cells; conc. 2H7.v16 / conc. variant
Procedure: To measure relative binding affinities to the CD20 antigen, a cell-based ELISA assay was developed. […] The cells were washed with PBS containing 1% fetal bovine serum (FBS) (assay buffer) and seeded at 250-300,000 cell/well in 96-well round bottom plates (Nunc, Roskilde, Denmark). […] The plates were buried in ice and incubated for 45 min. To remove the unbound antibody, 0.1 mL assay buffer was added to the wells. Plates were centrifuged and supernatants were removed. Cells were washed two more times with 0.2 mL assay buffer. Antibody bound to the plates was detected by adding peroxidase-conjugated goat anti-human Fc antibody (Jackson ImmunoResearch, West Grove, Pa.) to the plates. After a 45-min incubation, cells were washed as described before. TMB substrate (3,3′,5,5′-tetramethyl benzidine; Kirkegaard & Perry Laboratories, Gaithersburg, Md.) was added to the plates. The reaction was stopped by adding 1 M phosphoric acid. Titration curves were fit with a four-parameter nonlinear regression curve-fitting program ([…] ™, Synergy software, Reading, Pa.). The absorbance at the midpoint of the titration curve (mid-OD) and its corresponding concentration of the standard were determined. Then the concentration of each variant at this mid-OD was determined, and the concentration of the standard was divided by that of each variant.

Binder | Kd (human CD20 [1]) | Relative binding (human CD20 [2])
2H7.v73 (antibody, IgG1, IgG1; changes relative to 2H7.v16; also called 2H7 version 73) heavy: not shown light: DIQMTQSPSSLSASVGDRVTITCRASSSVSYLHWYQQKPGKAPKPLIYAPSNLASGVPSRFSGSGSGTDFTLTISSLQPEDFATYYCQQWSFNPPTFGQGTKVEIKRTVAAPSVFIFPPSDEQLKSGTASVVCLLNNFYPREAKVQWKVDNALQSGNSQESVTEQDSKDSTYSLSSTLTLSKADYEKHKVYACEVTHQGLSSPVTKSFNRGEC | 1.22 nM | 
2H7.v75 (antibody, IgG1, IgG1; changes relative to 2H7.v16; also called 2H7 version 75) heavy: EVQLVESGGGLVQPGGSLRLSCAASGYTFTSYNMHWVRQAPGKGLEWVGAIYPGNGDTSYNQKFKGRFTISVDKSKNTLYLQMNSLRAEDTAVYYCARVVYYSASYWYFDVWGQGTLVTVSSASTKGPSVFPLAPSSKSTSGGTAALGCLVKDYFPEPVTVSWNSGALTSGVHTFPAVLQSSGLYSLSSVVTVPSSSLGTQTYICNVNHKPSNTKVDKKVEPKSCDKTHTCPPCPAPELLGGPSVFLFPPKPKDTLMISRTPEVTCVVVDVSHEDPEVKFNWYVDGVEVHNAKTKPREEQYNATYRVVSVLTVLHQDWLNGKEYKCKVSNKALPAPIAATISKAKGQPREPQVYTLPPSREEMTKNQVSLTCLVKGFYPSDIAVEWESNGQPENNYKTTPPVLDSDGSFFLYSKLTVDKSRWQQGNVFSCSVMHEALHNHYTQKSLSLSPGK light: DIQMTQSPSSLSASVGDRVTITCRASSSVSYLHWYQQKPGKAPKPLIYAPSNLASGVPSRFSGSGSGTDFTLTISSLQPEDFATYYCQQWSFNPPTFGQGTKVEIKRTVAAPSVFIFPPSDEQLKSGTASVVCLLNNFYPREAKVQWKVDNALQSGNSQESVTEQDSKDSTYSLSSTLTLSKADYEKHKVYACEVTHQGLSSPVTKSFNRGEC | 1.09 nM | 
2H7.v166 (antibody, human IgG1, kappa, V domains shown, IgG1; changes relative to 2H7.v16; Y100b is deleted (written as a change to nothing); also called 2H7 version 166) VH: EVQLVESGGGLVQPGGSLRLSCAASGYTFTSYNMHWVRQAPGKGLEWVGAIYPGNGDTSYNQKFKGRFTISVDKSKNTLYLQMNSLRAEDTAVYYCARVVYYGGDWYFDVWGQGTLVTVSS VL: DIQMTQSPSSLSASVGDRVTITCRASSSVSYMHWYQQKPGKAPKPLIYAPSNLASGVPSRFSGSGSGTDFTLTISSLQPEDFATYYCQQWSFNPPTFGQGTKVEIKR |  | 0.99 ratio
